Results as given in US20250002962.

What was measured:
[1] = molecular target: rS1 domain 2 R139A (S1 D2 R139A), P0AG67
[2] = molecular target: BSA, P02769
[3] = molecular target: rS1 domain 3 (S1 D3), P0AG67
[4] = molecular target: rS1 domain 6 (S1 D6), P0AG67
[5] = molecular target: ribosomal protein S1 (rS1), P0AG67
[6] = molecular target: rS1 domain 2 (S1 D2), P0AG67
[7] = molecular target: rS1 domain 4 (S1 D4), P0AG67
[8] = molecular target: rS1 domain 5 (S1 D5), P0AG67
[9] = molecular target: rS1 domain 1 (S1 D1), P0AG67
[10] = molecular target: rS1 domain 2 R139K (S1 D2 R139K), P0AG67

BSA, P02769, sequence (P02769 25-607): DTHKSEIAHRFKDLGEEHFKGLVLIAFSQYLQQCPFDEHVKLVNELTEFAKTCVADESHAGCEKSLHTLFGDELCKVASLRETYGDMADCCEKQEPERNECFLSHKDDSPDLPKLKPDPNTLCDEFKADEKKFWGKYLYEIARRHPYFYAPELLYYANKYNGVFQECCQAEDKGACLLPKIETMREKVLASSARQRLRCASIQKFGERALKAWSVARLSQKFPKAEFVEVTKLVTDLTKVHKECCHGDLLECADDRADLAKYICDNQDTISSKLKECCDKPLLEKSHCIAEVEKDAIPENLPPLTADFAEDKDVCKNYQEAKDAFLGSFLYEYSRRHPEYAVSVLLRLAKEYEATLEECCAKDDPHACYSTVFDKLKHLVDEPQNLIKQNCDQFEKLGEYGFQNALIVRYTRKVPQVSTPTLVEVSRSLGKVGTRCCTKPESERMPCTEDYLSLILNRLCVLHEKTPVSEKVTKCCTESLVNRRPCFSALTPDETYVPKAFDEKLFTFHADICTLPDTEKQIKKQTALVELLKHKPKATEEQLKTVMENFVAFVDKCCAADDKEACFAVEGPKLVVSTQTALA

B1: ADP-ribosyltransferase ModB from Escherichia virus T4 (cloned ModB with His6 tag) (protein)
chain: MGIINLADVEQLSIKAESVDFQYDMYKKVCEKFTDFEQSVLWQCMEAKKNEALHKHLNEIIKKHLTKSPYQLYRGISKSTKELIKDLQVGEVFSTNRVDSFTTSLHTACSFSYAEYFTETILRLKTDKAFNYSDHISDIILSSPNTEFKYTYEDTDGLDSERTDNLMMIVREQEWMIPIGKYKITSISKEKLHDSFGTFKVYDIEVVELVPRGSLEHHHHHH
ADP-ribosylation level of D2 [1]: the ADP-ribosylation level of D2 is dramatically reduced if R139 is substituted by alanine or lysine | in vitro RNAylation and ADP-ribosylation (SDS-PAGE) [2]: control proteins without S1 domain (BSA, NudC inactive quadruple mutant) were not | RNAylation assay with single S1 domains [3]: rS1 D1, D3, D4 and D5 domains were modified to a much lesser extent | RNAylation assay with single S1 domains [4]: For rS1 domains D2 and D6 high RNAylation signals were determined | RNAylation of rS1 with 32P-labelled 5'-NAD-RNA 8mer (SDS-PAGE, autoradiography) [5]: ModB rapidly RNAylated its known target, ribosomal protein S1 (rS1) without detectable self-RNAylation | RNAylation assay with single S1 domains [6]: For rS1 domains D2 and D6 high RNAylation signals were determined | RNAylation with 5'-NXD-10mer-Cy5 RNAs (Tricine gel, band shift) [6]: rS1 DII was RNAylated in the presence of 5'-NXD-RNAs by ModB | RNAylation assay with single S1 domains [7]: rS1 D1, D3, D4 and D5 domains were modified to a much lesser extent | RNAylation assay with single S1 domains [8]: rS1 D1, D3, D4 and D5 domains were modified to a much lesser extent | RNAylation assay with single S1 domains [9]: rS1 D1, D3, D4 and D5 domains were modified to a much lesser extent | ADP-ribosylation level of D2 [10]: the ADP-ribosylation level of D2 is dramatically reduced if R139 is substituted by alanine or lysine
